{"source": "patent US20180147231A1", "about": "“METHOD FOR TREATMENT AND PROGNOSIS OF COLORECTAL CANCER” (Oxford University Innovation Limited, priority 2015, published 2018)", "molecules": {"B1": {"name": "IL-22: recombinant human IL-22 (R&D Systems), IL-10 superfamily cytokine; human sequence SEQ ID NO: 5 (protein, listed as Homo sapiens)", "chain": "MAALQKSVSSFLMGTLATSCLLLLALLVQGGAAAPISSHCRLDKSNFQQPYITNRTFMLAKEASLADNNTDVRLIGEKLFHGVSMSERCYLMKQVLNFTLEEVLFPQSDRFQPYMQEVVPFLARLSNRLSTCHIEGDDLHIQRNVQKLKDTVKKLGESGEIKAIGELDLLFMSLRNACI"}}, "key": {"[1]": {"tested_on": "SOCS3 expression in CRC lines (Colo205, LS103, SW948, T84, SW480, HCT116)", "experiment": "qPCR of SOCS3 after IL-22 stimulation of CRC cell lines", "format": "cell-based, human", "settings": "24 h stimulation with IL-22, n=3", "description": "(A) qPCR analysis of IL22RA1 expression level on 3 KRAS-WT (Colo205, LS103, SW948) and 3 KRAS-mutant (T84, SW480, HCT116) CRC cell lines. n=3 *p<0.05, **p<0.01, one-way ANOVA with Tukey's post test for multiple comparisons. (B) Representative FACS plots of IL-22RA1 expression on the Colo205 (KRAS-WT, IL-22RA1^high), T84 (KRAS-Mut, IL-22RA1^high), and SW480 (KRAS-mutant, IL-22RA1^low) lines. (C) Western blot analysis of activation of STAT3, ERK, and Akt signaling pathways in 6 CRC lines following 24 h stimulation with 1 ng/mL IL-22, 10 ng/mL IL-22, and 1 ng/mL IL-6. 1 blot representative of 3 independent experiments.\nColo205, LS1034, SW948, SW480, T84, and HCT116 (ATCC) colorectal cancer cell (CRC) lines were a generous gift from Dr. Simon Leedham and were confirmed to be mycoplasma free. X-MAN DLD-1 isogenic cells were purchased from Horizon Discovery. […]\nRNA was extracted from cultured monolayers of CRC lines, suspensions of LIM1863 spheroids, and CRC line derived spheres using the RNeasy Mini Kit (Qiagen) according to the manufacturers protocol. cDNA was synthesized using the High-Capacity cDNA Reverse Transcription Kit (Applied Biosystems). Gene expression was analyzed using Taqman® Gene Expression Assays (Applied Biosystems) and run with Precision 2× Master Mix (Primerdesign) in 384 well plates using the ViiA7 Real-Time PCR System (Applied Biosystems). […]"}, "[2]": {"tested_on": "T84 cells (KRAS-mutant, IL22RA1 high)", "experiment": "Chemotherapy killing assay (MTT), T84 cells", "format": "cell-based, human", "settings": "48 h pre-treatment with 10 ng/mL IL-22, then 50 μM oxaliplatin or 5-FU for 48 h", "experimental": "(A) MTT assay on Colo205, T84, and SW480 cells pre-treated or not pre-treated for 48 h with 10 ng/mL IL-22, then treated with 50 μM oxaliplatin or 5-FU for 48 h. MTT was added 2 h prior to end of 48 h incubation. Formazan particles were dissolved in DMSO and absorbance was measured at 540 nm. Raw absorbances are blank corrected, normalized to a no treatment or IL-22 only, and represented as a % reduction in viability compared to the no treatment or IL-22 only conditions. n=3 independent experiments with 3 experimental replicates, *p<0.05, ****p<0.0001, one-way ANOVA with Tukey's post test for multiple comparisons.\nColo205, T84, SW480, and DLD-1 cells were seeded at a density of 1×10^4 cells/well in 48 well plates. Cells were pre-treated for 48 h with 10 ng/mL IL-22, then subjected to 50 μM oxaliplatin (Sigma) or 5-fluorouracil (Sigma) or vehicle control (DMSO) for 48 h. 50 μg Methylthiazolyldiphenyl-tetrazolium bromide (MTT) (Sigma) was added to each well 2 h prior to the end of incubation. At the end of the 48 h incubation supernatants were aspirated and formazan particles were solubilized with DMSO and transferred to a fresh plate. Absorbance was measured at 540 nm on Spectrostar Nano plate reader (BMG Labtech)."}, "[3]": {"tested_on": "DLD-1 KRAS WT cells (mutant KRAS allele knocked out)", "experiment": "Phosflow analysis of intracellular signaling, DLD-1 KRAS WT", "format": "cell-based", "settings": "30 min 10 ng/mL recombinant human IL-22", "experimental": "Therefore this isogenic pair differs only in KRAS mutation status and allows a clean system for comparison of KRAS-dependent IL-22 effects without inter-cell line mutational heterogeneity. (A) Representative FACS plots of IL-22RA1 expression and quantification of mean fluorescence intensity (WI) showing similar IL-22RA1 expression in the isogenic pair (4 experimental replicates). […] MTT was added 2 h prior to end of 48 h incubation. Formazan particles were dissolved in DMSO and absorbance was measured at 540 nm. Raw absorbances are blank corrected, normalized to a no treatment, and represented as a % viability compared to the no treatment condition. n=5 independent experiments with 3 experimental replicates. p values computed by non-parametric Mann-Whitney test comparing 5 FU alone to IL-22 pretreatment with 5 FU for each DLD-1 line.\nAdherent Colo205, T84, SW480, and DLD-1 cells were dissociated using StemPro® Accutase® (Life Technologies), filtered through […] filters, and counted by Trypan Blue exclusion. 5×10^5 cells of each line were stained with 5 μL Human IL-22 R alpha 1 Phycoerythrin MAb (Clone 305405) (R&D Systems) or […] isotype rat anti-mouse IgG1 PE (BD Biosciences) and incubated for 30 minutes at room temperature. Cells were washed with PBS, 0.1% BSA, 2 mM EDTA and acquired on the BD LSRII. Analysis was performed using FlowJo (Tree Star) software. […]"}}, "data": [{"molecule": "B1", "values": [{"measurement": "SOCS3 expression (confirmation of active downstream IL-22 signaling)", "setting": "[1]", "value": "upregulation of SOCS3"}, {"measurement": "Protection against oxaliplatin and 5-fluorouracil mediated cell death", "setting": "[2]", "value": "protects against oxaliplatin and 5 fluorouracil mediated cell death"}, {"measurement": "Phosphorylated ERK1/2", "setting": "[3]", "value": "not IL-22 inducible"}, {"measurement": "Phosphorylated STAT3", "setting": "[3]", "value": "identical extent of phosphorylated STAT3"}]}]}
